This note sets out measurements from patent US20220220164A1.

The assay deals with maize RIP β-chain (second component of the gePSI), C-terminally fused to a murine ornithine decarboxylase (ODC36) degron (maize (Zea mays); murine) (UniProt P00860). Nature of the assay: cell-based or functional assay. As to conditions: scale: normalized nascent protein signal.
Chain of UniProt P00860 (P00860 426-461, tags or fused parts left off): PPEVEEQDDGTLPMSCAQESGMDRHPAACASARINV

In the case of “maize RIP α-chain (first component of the gePSI) (from UniProt P25891 22-161) (enzyme)”, the nascent protein signal of gePSI-transfected neurons after 4 h dox, normalized to the mean of neighboring untransfected neurons (FIG. 1g) is 0.21.
